# Test results: patent US8637043B2, “Compositions useful as ligands for the formyl peptide receptor like 1 receptor and methods of use thereof” (Chemocentryx, Inc., priority 2001, dated 2014)
# Where “and” joins values, the source holds several entries; their conditions need not be identical. Equal entries are not always repeated.
# T1: CCR1 (Homo sapiens, UniProt P32246)
# T1 construct: full length cDNA encoding CCR1 was cloned by the polymerase chain reaction (PCR) from genomic DNA isolated from human peripheral blood cells; expressed in transfected cells; pcDNA3.1 vector)
# T1 sequence (P32246 1-355): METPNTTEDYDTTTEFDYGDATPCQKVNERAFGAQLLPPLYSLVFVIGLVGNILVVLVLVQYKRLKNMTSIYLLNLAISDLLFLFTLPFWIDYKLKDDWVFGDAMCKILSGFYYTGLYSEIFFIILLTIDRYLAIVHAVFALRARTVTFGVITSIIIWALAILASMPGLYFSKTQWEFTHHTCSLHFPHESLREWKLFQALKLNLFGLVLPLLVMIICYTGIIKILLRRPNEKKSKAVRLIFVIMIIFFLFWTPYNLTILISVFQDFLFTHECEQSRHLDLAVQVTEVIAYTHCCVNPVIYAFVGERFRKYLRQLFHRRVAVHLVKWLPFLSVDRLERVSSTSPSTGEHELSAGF
# B1: CKβ8(1-99): known CKβ8 (CCL23) variant, human recombinant chemokine from R&D Systems (protein, listed as Homo sapiens)
# chain: RVTKDAETEFMMSKLPLENPVLLDRFHATSADCCISYTPRSIPCSLLESYFETNSECSKPGVIFLTKKGRRFCANPSDKQVQVCMRMLKLDTRIKTRKN
# B2: leukotactin: human recombinant chemokine, CCR1 agonist (protein, listed as Homo sapiens)
# chain: SFHFAADCCTSYISQSIPCSLMKSYFETSSECSKPGVIFLTKKGRQVCAKPSGPGVQDCMKKLKPYSI
# B3: MIP-1α: macrophage inflammatory protein, human recombinant chemokine, CCR1 ligand (protein, listed as Homo sapiens)
# chain: SLAADTPTACCFSYTSRQIPQNFIADYFETSSQCSKPGVIFLTKRSRQVCADPSEEWVQKYVSDLE
# Assays:
# human neutrophils [1] = test: Calcium flux in human neutrophils; type: cell-based; conditions: human neutrophils
# Procedure: (§1) Ca^2+ mobilization responses were performed using the intracellular ratiometric fluorescent dye, lndo-1. Cells were loaded with Indo-1/AM (3 μM; Molecular Probes, Eugene, Oreg.) in culture medium (45 min, 20° C., 10^7 cells/ml). After dye loading, cells were washed once with 10 ml PBS) and resuspended at 10^6 cell/ml in HBSS containing 1% FBS. Cytosolic [Ca^2+] release was determined using excitation at 350 nm using a Photon Technology International fluorimeter (excitation at 350 nm, ratioed dual emission at 400 and 490 nm).
# (§2) The human recombinant chemokines, leukotactin, MlP-1α, three known CKβ8 variants CKβ8(1-99), CKβ8(25-99), CKβ8-1(1-116) and a novel NH2-terminal truncated form of CKβ8-1, CKβ8-1 (25-116) were obtained from R&D Systems (Minneapolis, Minn.). Human monocytes were generated from buffy coats (Stanford Blood Center, Palo Alto, Calif.) following a standard protocol. Briefly, PBMC were isolated by standard density gradient centrifugation (Ficoll-Paque-Plus, Pharmacia). Monocytes were purified using CD14 Microbeads (Miltenyi, Auburn, Calif.) magnetic positive selection. Human neutrophils were isolated from fresh peripheral blood from healthy individuals by gradient centrifugation on Ficoll-Hypaque (Hyclone, Calif.).
# (§3) Human monocytes were either generated from buffy coats (Stanford Blood Center, Palo Also, Calif.) or from fresh blood of healthy individuals following a standard protocol. Briefly, PBMC were isolated by a Ficoll-Paque gradient centrifugation (Ficoll-Paque-Plus, Pharmacia). Monocytes were purified by CD14 Microbeads (Miltenyi) magnetic positive selection. Human neutrophils were isolated from fresh blood by dextran sedimentation and gradient centrifugation Ficoll-Paque gradient centrifugation. All cells were washed and resuspended (1×10^7/ml) in RPMI medium with 10% FBS.
# as §1, with “an” for “the”, “Indo-1.” for “lndo-1.”, “Probes (Eugene, Oreg.))” for “Probes, Eugene, Oreg.)”, “cells/mi).” for “cells/ml).”, “(10” for “with 10”
# human monocytes [2] = test: Calcium flux in human monocytes; type: cell-based
# Procedure: as §1, §2
# The activity of the CCL23 variants was tested on freshly prepared human monocytes and neutrophils using the calcium flux test described in Example 1.
# as §3
# as §1, with “an” for “the”, “Indo-1.” for “lndo-1.”, “Probes (Eugene, Oreg.))” for “Probes, Eugene, Oreg.)”, “cells/mi).” for “cells/ml).”, “(10” for “with 10”
# mature Dendritic Cells = test: Calcium mobilization, mature dendritic cells; type: cell-based, human
# Procedure: (§4) Human recombinant CKβ8-1(25-116) chemokine was obtained from R&D Systems (Minneapolis, Minn.). The peptide SHAAGtides SEQ ID NO:1 and SEQ ID NO:6 and a control protein (the reverse sequence of SEQ ID NO:1) were synthesized and HPLC-purified using routine techniques as described in Sambrook et al., 1989, and Ausubel et al., 1999.
# (§5) Immature DCs were derived by culturing CD14+ monocytes in the presence of GM-CSF and IL4. Briefly, monocytes were cultured in a T-175 flask at 10^6 cells/ml in RPMI/10% FCS. Recombinant human GM-CSF and IL4 were added on day 0, 2, 4 and 6 to a final concentration of 1000 u/ml and 500 u/ml, respectively. Cells were harvested on day 7 as immature DCs and characterized for surface protein expression by FACS analysis. DC maturation was carried out by culturing day 6 immature DCs in macrophage-conditioned medium (MCM). Briefly, day 6 immature DCs were harvested by centrifugation and resuspended in MCM at 10^6 cells/ml. The medium was supplemented with 1000 u/ml of GM-CSF and 500 u/ml IL4. After three more days of culture, cells were harvested as mature DCs and characterized by surface protein expression flow cytometry.
# MCM was prepared as follows: PBMCs isolated from buffy coat were incubated at 37° C. in a plastic flask pre-coated with 10 mg/ml human IgG (Sigma, St Louis, Mo.) for 30 minutes. After 30 minutes, non-adherent cells were removed and adherent cells were washed three times with DPBS, then cultured in RPMI/10% human serum. Conditioned-medium was collected after 24 hours. TNF-α concentration, which is critical for DC maturation, was determined by using a TNF-α ELISA kit (R&D Systems, Minn.). The final TNF-α level in MCM was adjusted to 50 u/mi by mixing with RPMI/10% human serum, and was stored at −80 freezer until use.
# as §1, with “an” for “the”, “Indo-1.” for “lndo-1.”, “Probes (Eugene, Oreg.))” for “Probes, Eugene, Oreg.)”, “cells/mi).” for “cells/ml).”, “(10” for “with 10”
# immature Dendritic Cells = test: Calcium mobilization, immature dendritic cells; type: cell-based, human
# Procedure: as §4, §5
# as §1, with “an” for “the”, “Indo-1.” for “lndo-1.”, “Probes (Eugene, Oreg.))” for “Probes, Eugene, Oreg.)”, “cells/mi).” for “cells/ml).”, “(10” for “with 10”
# monocytes [3] = test: 125I-MIP-1α binding competition, monocytes; design: species or system human; conditions: Monocytes
# Procedure: The binding characteristics of CCL23 variants was compared in human CCR1 expressing cells. The ability of MIP-1α and the CCL23 variants CKβ8(1-99), CKβ8(25-99), CKβ8-1(1-116) and CKβ8-1(25-116) to compete with ^125I-MIP-1α binding was investigated in HEK293-CCR1 cells (prepared as in Example 1). The cells were incubated with ^125I-labeled MIP-1α (final conc. {dot over (˜)}0.05 nM) in the presence of unlabeled chemokine (3 hours at 4° C.: 25 mM HEPES, 140 mM NaCl, 1 mM CaCl2, 5 mM MgCl2 and 0.2% BSA, adjusted to pH 7.1). Reactions mixtures were aspirated onto PEI-treated GF/B glass filters using a cell harvester (Packard). The filters were washed twice (25 mM HEPES, 500 mM NaCl, 1 mM CaCl2, 5 mM MgCl2, adjusted to pH 7.1). Scintillant (MicroScint-10; 35 μl) was added to dried filters and the filiters counted in a Packard Topcount scintillation counter. Data were analyzed and plotted using Prism software (GraphPad Software, San Diego, Calif.).
# (§6) Simiar binding competition tests were conducted on monocytes and neutrophils. These cells were prepared as in Example 2.
# human monocytes [4] = test: Migration assay (ChemoTx), human monocytes; type: cell-based; conditions: 90 min, 1-100 nM
# Procedure: (§7) Migration assays were performed on monocytes and neutrophils. Human monocytes and neutrophils (prepared as in Exampe 2) were harvested and resuspended in chemotaxis medium (CM). The CM consisted of Hank's buffered salt solution (Gibco, Mass.) containing CaCl2 (1 mM) and MgSO4 (1 mM) with added 0.1% BSA (Sigma, St. Louis, Mo.). The assays were performed in 96-well ChemoTx® microplates (Neuroprobe, Mass.). Leukotactin, MlP-1α and chemokines (CKβ8(1-99), CKβ8(25-99), CKβ8-1(1-116) or CKβ8-1(25-116), prepared as in Example 1) were added to the lower wells (final volume 29 μL), and 20 μL of cell suspension (5×10^6 cells/mL for monocytes; 2.5×10^6 cells/mL for neutrophils) added to the polycarbonate filters (5 μm pore size for monocytes; 3 μm pore size for neutrophils). After incubation for 90 min (37° C., 100% humidity, 5% CO2), cells were removed from the upper surface of the filter by scraping. Cells that migrated into the lower chamber were quantified using the Quant cell proliferation assay kit (Molecular Probes, Oreg.).
# The chemotactic activity on human monocytes and neutrophils of chemokines: CKβ8(1-99), CKβ8(25-99), CKβ8(1-116) and CKβ8(25-116); W peptides 1 and 2 and the SHAAGtide sequences SEQ ID NO:1 and SEQ ID NO:2 was determined in migration assays. The above peptides were prepared as in previous examples. The migration assays were performed in 96-well CHEMOTX® microplates (Neuroprobe) using the protocol described in Example 5.
# neutrophils [5] = test: Cross-desensitization with leukotactin, neutrophils; type: cell-based, human
# Procedure: (§8) In cross-desensitization tests tests, cells were stimulated sequentially with leukotactin and then the chemokines CKβ8(1-99), CKβ8(25-99), CKβ8-1(1-116), and CKβ8-1(25-116). On HEK293-CCR1 transfectants (prepared as in Example 1), leukotactin induced similar patterns of receptor desensitization to all variants.
# (§9) Similar receptor cross-desensitization tests were performed using both monocytes and neutrophils (prepared as in Example 2).
# monocytes [6] = test: Cross-desensitization with leukotactin, monocytes; type: cell-based, human
# Procedure: as §8, §9
# human neutrophils [7] = test: Migration assay (ChemoTx), human neutrophils; type: cell-based; conditions: 90 min, 100 nM
# Procedure: as §7, with “Leukotactin, MlP-1α and chemokines (CKβ8(1-99), CKβ8(25-99), CKβ8-1(1-116) or CKβ8-1(25-116), prepared as in Example 1) were added to the lower wells (final volume 29 μL), and 20 μL of cell suspension (5×10^6 cells/mL for monocytes; 2.5×10^6 cells/mL for neutrophils) added to the polycarbonate filters (5 μm pore size for monocytes; 3 μm pore size for neutrophils).” left out
# The above peptides were prepared as in previous examples.
# neutrophils [8] = test: MIP-1α binding, neutrophils; design: species or system human
# Procedure: as §6
# CCR1 = target: T1, CCR1; test: 125I-MIP-1α binding competition, HEK293-CCR1 cells; conditions: HEK293-CCR1, 3 hours at 4° C.
# Procedure: The binding characteristics of CCL23 variants was compared in human CCR1 expressing cells. […] Reactions mixtures were aspirated onto PEI-treated GF/B glass filters using a cell harvester (Packard). The filters were washed twice (25 mM HEPES, 500 mM NaCl, 1 mM CaCl2, 5 mM MgCl2, adjusted to pH 7.1). Scintillant (MicroScint-10; 35 μl) was added to dried filters and the filiters counted in a Packard Topcount scintillation counter. Data were analyzed and plotted using Prism software (GraphPad Software, San Diego, Calif.).
molecule,measurement,setting,value
"Gly Ala Ala His Ser Leu Thr Met Gin Pro Gly lie Lys Arg Arg Trp Leu Met (GAAHSLTMQPGIKRRWLM) [Control peptide (SEQ ID NO: 33), reference compound]",calcium flux,human neutrophils [1]; Example 8,No significant calcium flux
same,calcium flux,"human monocytes [2]; human monocytes, Example 8",No significant calcium flux
same,calcium flux,mature Dendritic Cells,No significant calcium flux
same,calcium flux,immature Dendritic Cells,No significant calcium flux
B1,IC50,monocytes [3],10 nM and 10.3 nM
same,calcium flux,human neutrophils [1]; 100 nM,"neither MlP-1α nor CKβ8(1-99), CKβ8(25-99) or CKβ8(1-116) induced a calcium flux"
same,migration of monocytes,human monocytes [4],moderate activity
same,calcium release,"human monocytes [2]; freshly prepared human monocytes, up to 250 nM",poor activity
same,desensitization by leukotactin prestimulation,neutrophils [5],inactive
same,desensitization by leukotactin prestimulation,monocytes [6],completely desensitized
B2,calcium flux,human neutrophils [1]; 100 nM,induced a calcium flux
same,migration of neutrophils,human neutrophils [7],none of the known CCR1 ligands including leukotactin and MlP-1α was active
B3,IC50,monocytes [3],0.27 nM
same,calcium flux,human neutrophils [1]; 100 nM,"neither MlP-1α nor CKβ8(1-99), CKβ8(25-99) or CKβ8(1-116) induced a calcium flux"
same,MIP-1α binding to neutrophils,neutrophils [8],does not bind neutrophils
same,migration of neutrophils,human neutrophils [7],none of the known CCR1 ligands including leukotactin and MlP-1α was active
same,IC50,CCR1,0.54 nM
